Changes are numbered by the printed parent chain. Names and notes keep the numbering of the source.
T1: 人CLDN18.1 (claudin-18 isoform 1 precursor [Homo sapiens], NP_057453.1) (human, UniProt P56856 1-261)
T1 construct: Full-length gene in pEGFP-N2, stably expressed on HEK293 cells (HEK293-hCLDN18.1); also called hCLDN18.1; HEK293-hCLDN18.1
T1 sequence: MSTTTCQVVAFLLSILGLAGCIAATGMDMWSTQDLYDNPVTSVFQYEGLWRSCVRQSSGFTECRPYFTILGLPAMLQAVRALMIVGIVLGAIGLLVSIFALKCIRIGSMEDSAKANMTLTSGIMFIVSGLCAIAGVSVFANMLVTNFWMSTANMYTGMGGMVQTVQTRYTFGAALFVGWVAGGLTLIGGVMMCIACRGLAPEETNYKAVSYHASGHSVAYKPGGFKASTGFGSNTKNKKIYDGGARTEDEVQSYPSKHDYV

B1: 嵌合抗体ch782 (antibody, V domains shown)
VH: DVQLQESGPDLVKPSQSLSLTCTVTGYSITSGYSWHWIRQFPGNKLEWMGYIHYSDNTNYSPSLKSRISITRDTSKNQFFLQLNSVTTEDTATYYCARIYYGNSFVYWGQGTLVTVSA
VL: DIVMTQSPSSLTVTAGEKVTMSCKSSQSLLNSGNQKNYLTWYQQKPGQPPKLLIYWASTRESGVPDRFTGSGSGTDFTLTINSVQAEDLAVYYCQNDYFYPYTFGGGTKLEIK
B2: 嵌合抗体ch624 (antibody, V domains shown)
VH: QVQLQQPGAELVRPGASVKLSCKASGYSFTSYWMNWVKQRPGQGLEWIGMIHPSDSETRLNQKFKDKATLTVDKSSSTAYMQLSSPTSEDSAVYYCARTSYGNSFAYWGQGTLVTVSA
VL: B1 VL with N82S, F99S, Y102F, G106S
B3: 人源化抗体hu782-HV (H1.2-V101A L2组合) (antibody, human IgG1, V domains shown)
VH: QVQLQESGPGLVKPSETLSLTCTVSGYSITSGYSWHWIRQPPGKGLEWMGYIHYSDNTNYAPSLKSRITISRDTSKNQFSLKLSSVTAADTAVYYCARIYYGNSFAYWGQGTLVTVSS
VL: DIVMTQSPDSLAVSLGERATINCKSSQSLLNSGNQKNYLTWYQQKPGQPPLLIYWASTRESGVPDRFSGSGSGTDFTLTISSLQAEDVAVYYCQNDYFYPYTFGGGTKLEIK

Tests used:
[1] = target: T2, 人CLDN18.2 (claudin-18 isoform 2 [Homo sapiens], NP_001002026.1) (human); assay: cell-based or functional assay
[2] = target: T2, 人CLDN18.2 (claudin-18 isoform 2 [Homo …); assay: cell-based or functional assay; remark: listed apart in the source
[3] = target: T1, 人CLDN18.1 (claudin-18 isoform 1 …); assay: flow cytometry on HEK293-hCLDN18.1 cells
[4] = target: T2, 人CLDN18.2 (claudin-18 isoform 2 [Homo …); assay: cell ELISA on fixed HEK293-hCLDN18.2 cells
[5] = target: T2, 人CLDN18.2 (claudin-18 isoform 2 [Homo …); assay: cell ELISA on fixed NUGC4 cells (endogenous human CLDN18.2)
[6] = target: T2, 人CLDN18.2 (claudin-18 isoform 2 [Homo …); assay: flow cytometry on HEK293-hCLDN18.2 cells, MFI against concentration

Binder | CDC on HEK293-hCLDN18.2 cells (rabbit complement, CCK-8), EC50 [1] [µg/mL] | ADCC reporter gene assay (Jurkat/NFAT-luc+FcγRIIIa) on HEK293-hCLDN18.2 cells, EC50 [2] [µg/mL] | binding result [3] | EC50 [4] [µg/mL] | 相对结合活性 (relative to Ref.ch175) [4] [%] | EC50 [5] [µg/mL] | EC50 [6] [µg/mL] | ADCC reporter gene assay on HEK293-hCLDN18.2 cells, EC50 [1] [µg/mL]
B1 | 0.0309 | 0.0476 | no binding | 0.0173 | 180 | 0.57 | 0.81 | –
B2 | – | – | no binding | 0.0392 | 79.3 | – | – | –
B3 | 0.0476 | – | – | – | – | – | – | 0.0709

— CN116102649A (SHANGHAI INST OF BIOLOGICAL PRODUCTS CO LTD, dated 2023)
